Laboratory results taken from doi:10.1101/836718.

Assays:
[1] = target: recombinant His-tagged HIV-1 integrase R269A/K273A (IN^RAKA) (HIV-1 (NL4-3)); test: cross-linking
[2] = target: recombinant His-tagged HIV-1 integrase P26 (A128T/H171Q/K173Q/N254K) (IN^P26) (HIV-1 (NL4-3)); test: SEC
[3] = target: recombinant His-tagged HIV-1 integrase P26 (A128T/H171Q/K173Q/N254K) (IN^P26) (HIV-1 (NL4-3)); test: cross-linking
[4] = target: recombinant His-tagged HIV-1 integrase P15 (A128T/K173Q) (IN^P15) (HIV-1 (NL4-3)); test: SEC
[5] = target: recombinant His-tagged HIV-1 integrase P20 (A128T/K173Q/N254K) (IN^P20) (HIV-1 (NL4-3)); test: SEC

With “recombinant His-tagged HIV-1 integrase R269A/K273A (IN^RAKA) (enzyme)” the stoichiometry N [1] was 4.

Work on “recombinant His-tagged HIV-1 integrase P26 (A128T/H171Q/K173Q/N254K) (IN^P26) (enzyme)” yielded a stoichiometry N [2] of 2, a multimer ratio, dimers [3] of 19.6% and a multimer ratio, tetramers [3] of 3.3%. It also gave a stoichiometry N [3] of 4.

With “recombinant His-tagged HIV-1 integrase P15 (A128T/K173Q) (IN^P15) (enzyme)” the stoichiometry N [4] was 2.

For “recombinant His-tagged HIV-1 integrase P20 (A128T/K173Q/N254K) (IN^P20) (enzyme)”, the stoichiometry N [5] was 2.
